This passage reports protein stability index results from the supplement of paper PMC10724198.

± gives the standard deviation of the averaged measurements.
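Note: PSI is a weighted mean of sequencing reads over stability bins, variants kept only with over 10 reads, mCherry proximal and sfGFP distal, peptide attached via GGGS linker.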

In this data set the test system is Saccharomyces cerevisiae. In words: protein stability index of tFT-peptide fusion (C-terminal peptide) (PSI (0-1 scale)); higher = more stable (slower turnover). Conditions: genetic background: wild type; temperature: 30 C.
The sequence KSNTGGGERNKA gave a protein stability index of 0.668 ± 0.018.
The figure for KSPYNTPLSLVL is 0.672 ± 0.024.
The figure for KSRVCSPSNEPS is 0.7443 ± 0.0074; for KSYTGSRGQRVL it is 0.701 ± 0.053; for KTFRTYRTYFRK it is 0.682 ± 0.023.
The figure for KTKEKTKKEIQM is 0.629 ± 0.0042; for KTKKKKKKKINK it is 0.711 ± 0.11.
Turning to KTKNTQRKTEEN, the protein stability index was 0.653 ± 0.047.
To KTKTKKKERNRK belongs 0.622 ± 0.088; to KTLYIAKTKSRA, 0.644 ± 0.038; to KTNLGNTKVKKK, 0.613 ± 0.025.
In the case of KTPAAVPWTRER, the protein stability index worked out at 0.693 ± 0.013.
The figure for KTPHSTARNFNR is 0.736 ± 0.092.
To KTRNDQPQKFHN belongs 0.688 ± 0.034; to KVCIRFSCKIHM, 0.6396 ± 0.0021.
The figure for KVIRVEALEILV is 0.544 ± 0.023.
For the sequence KVKIKREKKKRK, the protein stability index is 0.672 ± 0.017.
To KVQGGGKYPTYS belongs 0.699 ± 0.058; to KVSATIISFENI, 0.709 ± 0.1.
The figure for KVVGRLGVERVR is 0.753 ± 0.0052; for KWREQPRNDIVL it is 0.604 ± 0.047.
The figure for KYDSPFFNWCSQ is 0.579 ± 0.031; for KYKEEINEKIFN it is 0.646 ± 0.022.
For KYKELEAAALQK, the protein stability index turned out to be 0.732 ± 0.11.
The figure for KYRHDFNEVSKT is 0.665 ± 0.036.
For LAEGFSLIRSHR, the protein stability index amounted to 0.685 ± 0.019.
To LAFFEFVVDSLG belongs 0.677 ± 0.018; to LAGGMTSRTVSI, 0.716 ± 0.0073.
In turn, LAGVTLPRPSSA gave a protein stability index of 0.6633 ± 0.0046.
To LAIIKLRGDLSY belongs 0.6646 ± 0.0019; to LAKRSKCCNRSR, 0.686 ± 0.018; to LALGICRLSSAG, 0.7599 ± 0.005.
The figure for LALSRVALFSHS is 0.679 ± 0.042; for LAPPPARLPLSP it is 0.687 ± 0.009; for LARFRAEWGGVV it is 0.691 ± 0.019.
The figure for LARWFILRDLIY is 0.56 ± 0.0089; for LASARPLILSWP it is 0.628 ± 0.019; for LASEPLPPYPPS it is 0.704 ± 0.052.
The sequence LASPPFPRPPPP gave a protein stability index of 0.57 ± 0.12.
To LASSLTALRYPP belongs 0.742 ± 0.064; to LASYSSCYIRDF, 0.751 ± 0.017.
To LATPPPPPLSPP belongs 0.789 ± 0.19; to LAVKGIVNDSTI, 0.683 ± 0.0084; to LCGVRGESGLEG, 0.685 ± 0.031.
To LCLFRSCVHSSA belongs 0.616 ± 0.049; to LCLRRLSCVGFG, 0.568 ± 0.022.
For LCLWVWGSVVGG, the protein stability index is 0.6123 ± 0.0015.
To LCPNFFFFSSSP belongs 0.75 ± 0.017; to LCPRIAIVHPPS, 0.606 ± 0.027.
To LCQCAFLSFSCF belongs 0.61642 ± 1.1e-05; to LCRPNELPDGLP, 0.664 ± 0.039; to LCSLWWGLVSGW, 0.652 ± 0.029.
To LCSPCSSLFHSQ belongs 0.656 ± 0.032; to LCVGAGCAFEEG, 0.675 ± 0.025.
LCVWFGGLGLVG gave a protein stability index of 0.69 ± 0.019.
To LDAVRCRDKAVV belongs 0.6537 ± 0.0036; to LDGAHLLLNTIP, 0.687 ± 0.039.
In turn, LDRTIPGPWPLR returned a protein stability index of 0.731 ± 0.042.
To LDVASTPPLSTL belongs 0.704 ± 0.023; to LDVCDGVSGVRS, 0.647 ± 0.035.
The figure for LDYDTTNSMWLS is 0.586 ± 0.09; for LECLSRGWSIYC it is 0.541 ± 0.05.
The figure for LEDGDRVYQVTI is 0.655 ± 0.012; for LEEGLYQQEDIR it is 0.722 ± 0.076; for LEFEIYHSECTV it is 0.685 ± 0.088.
Sequence LEFMTENSCACV displayed a protein stability index of 0.652 ± 0.033.
To LEGGVREMRGDG belongs 0.641 ± 0.053; to LEPHEIKERRPL, 0.721 ± 0.066.
The figure for LEQNCYYGEFSS is 0.665 ± 0.035; for LETEVDIYWLYR it is 0.605 ± 0.048; for LEVHQGYLSSCH it is 0.676 ± 0.12.
To LFALSVHTHPYP belongs 0.73 ± 0.024; to LFDRRDTSTLLL, 0.707 ± 0.032.
Turning to LFENNGIKCHKR, the protein stability index was 0.683 ± 0.013.
LFFGVEWWRFEG gave a protein stability index of 0.5604 ± 0.0023.
To LFFLFSPFSRLP belongs 0.786 ± 0.089; to LFGAGGGGVEVG, 0.672 ± 0.14; to LFGPRCTSSSAV, 0.689 ± 0.015.
The figure for LFGSMGVLGIGR is 0.672 ± 0.061.
The figure for LFIGKEGWVACL is 0.562 ± 0.019; for LFIYSMKRFILE it is 0.631 ± 0.052.
With LFKKVGGRSLVW, the protein stability index was determined as 0.6813 ± 0.0036.
To LFLAPFRLVLGV belongs 0.518 ± 0.01; to LFLLSLLDWGFR, 0.661 ± 0.072.
The figure for LFLPPLFRRSPF is 0.684 ± 0.018; for LFLWRFPSPFRA it is 0.661 ± 0.036.
The figure for LFPCPLRPGCLP is 0.699 ± 0.099; for LFPLAPRRLAPP it is 0.628 ± 0.069.
On to LFPLPHPLPVSL, for which the protein stability index was found to be 0.6146 ± 0.0053.
LFPPPPPSPRCL had a protein stability index of 0.637 ± 0.055.
To LFRPFATALFPL belongs 0.747 ± 0.066; to LFRWLLRLVISH, 0.608 ± 0.021.
Regarding LFSLPPPSPPPR, the protein stability index came out at 0.694 ± 0.03.
The figure for LFTPLLVPYPTP is 0.522 ± 0.0028.
To LFVYSSVALSSQ belongs 0.59301 ± 0.00049.
The figure for LFYFFGKRPAHL is 0.781 ± 0.045; for LGAHLSTAPPPP it is 0.655 ± 0.022.
On to LGDVRRENKQLP, for which the protein stability index was 0.6981 ± 0.003.
As for LGFVGVRSVRSG, the protein stability index was determined as 0.667 ± 0.059.
The figure for LGGGGPSVREGE is 0.679 ± 0.05; for LGGGGVGGVRGV it is 0.6675 ± 0.0046.
The figure for LGGLLLCLGLSG is 0.674 ± 0.058; for LGGRGGACRRDR it is 0.7 ± 0.019.
The figure for LGHQFKGTILRV is 0.73 ± 0.059; for LGKVAGLGAGRP it is 0.719 ± 0.034.
Sequence LGPFTEAVSRHC gave a protein stability index of 0.67 ± 0.021.
The figure for LGQRFRLFVSFF is 0.468 ± 0.077; for LGRAGMWTRRGL it is 0.663 ± 0.034; for LGRCRQTERETS it is 0.649 ± 0.089.
The figure for LGRGRWSVLVVR is 0.5287 ± 0.0014; for LGSFLPLLPSPP it is 0.674 ± 0.041.
To LGSGVQGEGRGW belongs 0.678 ± 0.042.
LGTVPLLPPRSP had a protein stability index of 0.713 ± 0.028.
To LGVIHPSVYFCL belongs 0.5416 ± 0.0023; to LGVMLLEGWRVM, 0.656 ± 0.018; to LGVPGSGDGEWW, 0.592 ± 0.029.
